From patent US20110263454A1, “Methods of Identifying Functional Characteristics of Promoters, Transcription Modifying Proteins and Transcription Modulating Agents” (Salk Institute for Biological Studies, priority 2008, published 2011)

How the values were obtained:
[1] = test system: hCYP3A4 promoter; assay: NHR-promoter luciferase screen, hCYP3A4 promoter; format: cell-based, human; details: for Luc. act., normalized to lacZ / Normalized Luc. act., normalized to control: CYP3A4 promoter, HR/ligand component; for hCYP3A4 promoter reporter activity: transcription factor +/- ligand, control = 1.00
Outline: (§1)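 Luciferase reporter read-out after co-expression in CV-1 cells of V5H6-tagged receptor (alone or with RXR), the promoter construct and LacZ. Values are luciferase/LacZ relative to a control lacking NHR or ligand; orphan receptors tested ligand-free.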

[2] = test system: mAgrp promoter; assay: NHR-promoter luciferase screen, mAgrp promoter; format: cell-based, mouse; details: for Results of assays of transcription factor (+/- ligand) with mAgrp: Table 6d, luciferase activity relative to control (control = 1.00); for Luc. act., normalized to lacZ / Normalized Luc. act., normalized to control: mAgrp promoter, HR component with or without ligand; for Normalized Luc. act., normalized to control: relative to control; for luciferase/LacZ, mAgrp (selected results): mAgrp promoter-luciferase, NHR +/- ligand, control = 1.0
Outline: (§2)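 CV-1 cells were co-transfected with 50 ng NHR (homodimer or NHR/RXR heterodimer), 100 ng promoter-luciferase construct and 50 ng LacZ. Luciferase was normalized to LacZ and to a no-NHR/no-ligand control.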

[3] = test system: mGhrelin promoter; assay: NHR-promoter luciferase screen, mGhrelin promoter; format: cell-based, mouse; details: for Luc. act., normalized to lacZ / Normalized Luc. act., normalized to control: Table 8, mGhrelin; for Results of assays of transcription factor (+/- ligand) with mGhrelin: Table 6d, luciferase activity relative to control (control = 1.00); for luciferase/LacZ, mGhrelin (selected results): mGhrelin promoter-luciferase, NHR +/- ligand, control = 1.0
Outline: as §2

[4] = test system: mPgc1b promoter; assay: NHR-promoter luciferase screen, mPgc1b promoter; format: cell-based, mouse; details: for Luc. act., normalized to lacZ / Normalized Luc. act., normalized to control: PGC1b promoter reporter, co-transfected HR, without or with its ligand; for Normalized Luc. act., normalized to control: relative to control; for luciferase activity normalized to lacZ activity and to a control, mPgc1b: mPgc1b promoter-luciferase, CV-1 cells, NHR +/- ligand, control = 1.00
Outline: as §1

[5] = test system: mABCA1 promoter; assay: NHR-promoter luciferase screen, mABCA1 promoter; format: cell-based, mouse; details: for Luc. act., normalized to lacZ / Normalized Luc. act., normalized to control: ABCA1 promoter, hormone receptor with or without its ligand; for Normalized Luc. act., normalized to control: relative to control; for mABCA1 promoter reporter activity: transcription factor +/- ligand, control = 1.00
Outline: as §2

Molecule	Luc. act., normalized to lacZ [1]	Normalized Luc. act., normalized to control [1]	hCYP3A4 promoter reporter activity [1]	Results of assays of transcription factor (+/- ligand) with mAgrp [2]	Luc. act., normalized to lacZ [2]	Normalized Luc. act., normalized to control [2]	Luc. act., normalized to lacZ [3]	Normalized Luc. act., normalized to control [3]	Results of assays of transcription factor (+/- ligand) with mGhrelin [3]	Luc. act., normalized to lacZ [4]	Normalized Luc. act., normalized to control [4]	luciferase activity normalized to lacZ activity and to a control, mPgc1b [4]	Luc. act., normalized to lacZ [5]	Normalized Luc. act., normalized to control [5]	mABCA1 promoter reporter activity [5]	luciferase/LacZ, mAgrp (selected results) [2]	luciferase/LacZ, mGhrelin (selected results) [3]
HNF4g: Hepatocyte Nuclear Factor γ (NR2A2), cDNA driver (protein, UniProt Q14541 1-408, looked up) Hepatocyte nuclear factor …: MNTTDNGVNCLCAICGDRATGKHYGASSCDGCKGFFRRSIRKSHVYSCRFSRQCVVDKDKRNQCRYCRLRKCFRAGMKKEAVQNERDRISTRRSTFDGSNIPSINTLAQAEVRSRQISVSSPGSSTDINVKKIASIGDVCESMKQQLLVLVEWAKYIPAFCELPLDDQVALLRAHAGEHLLLGATKRSMMYKDILLLGNNYVIHRNSCEVEISRVANRVLDELVRPFQEIQIDDNEYACLKAIVFFDPDAKGLSDPVKIKNMRFQVQIGLEDYINDRQYDSRGRFGELLLLLPTLQSITWQMIEQIQFVKLFGMVKIDNLLQEMLLGGASNDGSHLHHPMHPHLSQDPLTGQTILLGPMSTLVHADQISTPETPLPSPPQGSGQEQYKIAANQASVISHQHLSKQKQL	1.8	0.4	0.40	0.77	30.4	0.8	58.1	1.1	1.11	6.8	0.6	0.57	11.3	2.0	2.01		
ERR2: Estrogen Related Receptor β (NR3B2, ERRb), cDNA driver (protein, UniProt O95718 1-433, looked up) Steroid hormone receptor ERR2: MSSDDRHLGSSCGSFIKTEPSSPSSGIDALSHHSPSGSSDASGGFGLALGTHANGLDSPPMFAGAGLGGTPCRKSYEDCASGIMEDSAIKCEYMLNAIPKRLCLVCGDIASGYHYGVASCEACKAFFKRTIQGNIEYSCPATNECEITKRRRKSCQACRFMKCLKVGMLKEGVRLDRVRGGRQKYKRRLDSESSPYLSLQISPPAKKPLTKIVSYLLVAEPDKLYAMPPPGMPEGDIKALTTLCDLADRELVVIIGWAKHIPGFSSLSLGDQMSLLQSAWMEILILGIVYRSLPYDDKLVYAEDYIMDEEHSRLAGLLELYRAILQLVRRYKKLKVEKEEFVTLKALALANSDSMYIEDLEAVQKLQDLLHEALQDYELSQRHEEPWRTGKLLLTLPLLRQTAAKAVQHFYSVKLQGKVPMHKLFLEMLEAKV	15.5	3.5	3.49	1.64	65.0	1.6	365.8	7.0	7.00	12.7	1.1	1.07	33.0	5.9	5.88	1.6	7.0
TR4: Testicular Orphan Nuclear Receptor 4 (NR2C2), cDNA driver (protein, UniProt P49116 1-596, looked up) Nuclear receptor subfamily 2 …: MTSPSPRIQIISTDSAVASPQRIQIVTDQQTGQKIQIVTAVDASGSPKQQFILTSPDGAGTGKVILASPETSSAKQLIFTTSDNLVPGRIQIVTDSASVERLLGKTDVQRPQVVEYCVVCGDKASGRHYGAVSCEGCKGFFKRSVRKNLTYSCRSNQDCIINKHHRNRCQFCRLKKCLEMGMKMESVQSERKPFDVQREKPSNCAASTEKIYIRKDLRSPLIATPTFVADKDGARQTGLLDPGMLVNIQQPLIREDGTVLLATDSKAETSQGALGTLANVVTSLANLSESLNNGDTSEIQPEDQSASEITRAFDTLAKALNTTDSSSSPSLADGIDTSGGGSIHVISRDQSTPIIEVEGPLLSDTHVTFKLTMPSPMPEYLNVHYICESASRLLFLSMHWARSIPAFQALGQDCNTSLVRACWNELFTLGLAQCAQVMSLSTILAAIVNHLQNSIQEDKLSGDRIKQVMEHIWKLQEFCNSMAKLDIDGYEYAYLKAIVLFSPDHPGLTSTSQIEKFQEKAQMELQDYVQKTYSEDTYRLARILVRLPALRLMSSNITEELFFTGLIGNVSIDSIIPYILKMETAEYNGQITGASL	7.7	1.7	1.74	2.06	81.8	2.1	273.5	5.2	5.23	17.3	1.5	1.46	36.4	6.5	6.49	2.1	5.2
ERR3: Estrogen Related Receptor γ (NR3B3, ERRg), cDNA driver (protein, UniProt P62508 1-458, looked up) Estrogen-related receptor …: MDSVELCLPESFSLHYEEELLCRMSNKDRHIDSSCSSFIKTEPSSPASLTDSVNHHSPGGSSDASGSYSSTMNGHQNGLDSPPLYPSAPILGGSGPVRKLYDDCSSTIVEDPQTKCEYMLNSMPKRLCLVCGDIASGYHYGVASCEACKAFFKRTIQGNIEYSCPATNECEITKRRRKSCQACRFMKCLKVGMLKEGVRLDRVRGGRQKYKRRIDAENSPYLNPQLVQPAKKPYNKIVSHLLVAEPEKIYAMPDPTVPDSDIKALTTLCDLADRELVVIIGWAKHIPGFSTLSLADQMSLLQSAWMEILILGVVYRSLSFEDELVYADDYIMDEDQSKLAGLLDLNNAILQLVKKYKSMKLEKEEFVTLKAIALANSDSMHIEDVEAVQKLQDVLHEALQDYEAGQHMEDPRRAGKMLMTLPLLRQTSTKAVQHFYNIKLEGKVPMHKLFLEMLEAKV	4.5	1.0	1.02	2.12	84.0	2.1	145.9	2.8	2.79	20.1	1.7	1.70	11.4	2.0	2.04		
Erb: Estrogen Receptor β (NR3A2, ERb), cDNA driver (protein, UniProt Q92731 1-530, looked up) Estrogen receptor beta: MDIKNSPSSLNSPSSYNCSQSILPLEHGSIYIPSSYVDSHHEYPAMTFYSPAVMNYSIPSNVTNLEGGPGRQTTSPNVLWPTPGHLSPLVVHRQLSHLYAEPQKSPWCEARSLEHTLPVNRETLKRKVSGNRCASPVTGPGSKRDAHFCAVCSDYASGYHYGVWSCEGCKAFFKRSIQGHNDYICPATNQCTIDKNRRKSCQACRLRKCYEVGMVKCGSRRERCGYRLVRRQRSADEQLHCAGKAKRSGGHAPRVRELLLDALSPEQLVLTLLEAEPPHVLISRPSAPFTEASMMMSLTKLADKELVHMISWAKKIPGFVELSLFDQVRLLESCWMEVLMMGLMWRSIDHPGKLIFAPDLVLDRDEGKCVEGILEIFDMLLATTSRFRELKLQHKEYLCVKAMILLNSSMYPLVTATQDADSSRKLAHLLNAVTDALVWVIAKSGISSQQQSMRLANLLMLLSHVRHASNKGMEHLLNMKCKNVVPVYDLLLEMLNAHVLRGCKSSITGSECSPAEDSKSKEGSQNPQSQ	6.0	1.3	1.35	0.98	39.0	1.0	47.5	0.9	0.91	9.2	0.8	0.77	12.4	2.2	2.21		
TR2: Testicular Orphan Nuclear Receptor 2 (NR2C1), cDNA driver (protein, UniProt P13056 1-603, looked up) Nuclear receptor subfamily 2 …: MATIEEIAHQIIEQQMGEIVTEQQTGQKIQIVTALDHNTQGKQFILTNHDGSTPSKVILARQDSTPGKVFLTTPDAAGVNQLFFTTPDLSAQHLQLLTDNSPDQGPNKVFDLCVVCGDKASGRHYGAVTCEGCKGFFKRSIRKNLVYSCRGSKDCIINKHHRNRCQYCRLQRCIAFGMKQDSVQCERKPIEVSREKSSNCAASTEKIYIRKDLRSPLTATPTFVTDSESTRSTGLLDSGMFMNIHPSGVKTESAVLMTSDKAESCQGDLSTLANVVTSLANLGKTKDLSQNSNEMSMIESLSNDDTSLCEFQEMQTNGDVSRAFDTLAKALNPGESTACQSSVAGMEGSVHLITGDSSINYTEKEGPLLSDSHVAFRLTMPSPMPEYLNVHYIGESASRLLFLSMHWALSIPSFQALGQENSISLVKAYWNELFTLGLAQCWQVMNVATILATFVNCLHNSLQQDKMSTERRKLLMEHIFKLQEFCNSMVKLCIDGYEYAYLKAIVLFSPDHPSLENMEQIEKFQEKAYVEFQDYITKTYPDDTYRLSRLLLRLPALRLMNATITEELFFKGLIGNIRIDSVIPHILKMEPADYNSQIIGHSI	2.0	0.4	0.44	0.98	39.0	1.0	63.2	1.2	1.21	9.8	0.8	0.83	31.2	5.6	5.55		
